Test results: paper PMC10578478
Positions count from the first letter of the chain named.

Assays:
[1] = biological target: T1, Pla1-Y86D (Schizosaccharomyces pombe (fission …, UniProt Q10295 1-566, Y86D)); assay: fluorescence polarization
T1 sequence: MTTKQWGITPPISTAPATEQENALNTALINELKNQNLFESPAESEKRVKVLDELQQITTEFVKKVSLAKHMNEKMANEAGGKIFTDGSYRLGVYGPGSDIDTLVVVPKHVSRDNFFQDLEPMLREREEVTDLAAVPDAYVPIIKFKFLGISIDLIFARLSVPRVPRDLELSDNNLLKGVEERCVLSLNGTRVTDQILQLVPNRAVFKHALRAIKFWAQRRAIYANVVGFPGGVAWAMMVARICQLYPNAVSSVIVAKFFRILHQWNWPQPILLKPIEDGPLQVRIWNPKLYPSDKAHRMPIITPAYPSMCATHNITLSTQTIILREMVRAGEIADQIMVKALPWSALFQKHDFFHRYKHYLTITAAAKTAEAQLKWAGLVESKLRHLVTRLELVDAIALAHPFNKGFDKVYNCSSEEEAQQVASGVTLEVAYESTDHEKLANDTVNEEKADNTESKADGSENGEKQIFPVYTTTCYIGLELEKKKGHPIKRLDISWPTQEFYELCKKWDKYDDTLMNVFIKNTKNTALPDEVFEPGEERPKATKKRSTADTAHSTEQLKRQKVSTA

[2] = biological target: T2, Pla1 poly(A) polymerase wild-type (Schizosaccharomyces pombe (fission …, UniProt Q10295 1-566)); assay: fluorescence polarization
T2 sequence: T1 sequence with D86Y

B1: 12-mer RNA primer (ssRNA)
RNA: UUUCUGUGGCUA
[1]
  binding result: no binding
[2]
  Kd: ~456 nM
